Data: US8691944 (RESEARCH FOUNDATION FOR THE STATE UNIVERSITY OF NEW YORK, dated 2014)

B1: vascular endothelial growth factor A (VEGF-A) (ligand, UniProt P15692-4 27-191, looked up)
chain: APMAEGGGQNHHEVVKFMDVYQRSYCHPIETLVDIFQEYPDEIEYIFKPSCVPLMRCGGCCNDEGLECVPTEESNITMQIMRIKPHQGQHIGEMSFLQHNKCECRPKKDRARQENPCGPCSERRKHLFVQDPQTCKCSCKNTDSRCKARQLELNERTCRCDKPRR
B2: peptide 1 (QPSHISKYILRWRPKNSVGRWKEAT) (peptide)
peptide: QPSHISKYILRWRPKNSVGRWKEAT
notes: Synthetic peptide; also called FN634-658
B3: EGF (ligand, UniProt P01133 971-1023, looked up)
chain: NSDSECPLSHDGYCLHDGVCMYIEALDKYACNCVVGYIGERCQYRDLKWWELR
B4: platelet-derived growth factor-BB (PDGF-BB) (ligand, UniProt P01127 82-190, looked up)
chain: SLGSLTIAEPAMIAECKTRTEVFEISRRLIDRTNANFLVWPPCVEVQRCSGCCNNRNVQCRPTQVQLRPVQVRKIEIVRKKPIFKKATVTLEDHLACKCETVAAARPVT
notes: Two B chains by its name BB

Legend:
[1] = biological target: T1, FNIII12-V15 (HV), composite heparinII-binding and variably-spliced IIICS domains of fibronectin (human, UniProt P02751 1812-2288); assay: plasmon resonance
T1 construct: domain: FNIII12-V15; Recombinant domain made in E. coli; Some constructs carried GST at the C-terminus
T1 sequence (P02751 other isoform, or with tags, fused parts or gaps limits assumed): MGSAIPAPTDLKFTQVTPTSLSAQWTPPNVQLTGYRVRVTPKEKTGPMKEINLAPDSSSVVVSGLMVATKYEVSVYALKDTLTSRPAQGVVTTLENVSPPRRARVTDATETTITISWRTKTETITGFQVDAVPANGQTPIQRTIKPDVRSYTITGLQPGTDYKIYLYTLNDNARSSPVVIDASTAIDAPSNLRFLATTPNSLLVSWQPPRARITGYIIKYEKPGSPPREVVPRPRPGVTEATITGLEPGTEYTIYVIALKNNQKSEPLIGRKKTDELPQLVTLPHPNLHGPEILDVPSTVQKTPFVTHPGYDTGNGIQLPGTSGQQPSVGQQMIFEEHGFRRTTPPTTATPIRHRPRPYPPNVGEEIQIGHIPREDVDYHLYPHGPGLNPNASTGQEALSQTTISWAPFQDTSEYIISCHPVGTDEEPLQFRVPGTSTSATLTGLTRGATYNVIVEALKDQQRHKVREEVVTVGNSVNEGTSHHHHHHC

[2] = biological target: T2, 70 kDa amino terminus of FN (FN70) (UniProt P02751 32-608, limits assumed); assay: binding assay, method not restated
T2 construct: domain: 70 kDa amino terminus of FN (FN70); also called amino-terminal end of FN
T2 sequence (P02751 32-608 limits assumed): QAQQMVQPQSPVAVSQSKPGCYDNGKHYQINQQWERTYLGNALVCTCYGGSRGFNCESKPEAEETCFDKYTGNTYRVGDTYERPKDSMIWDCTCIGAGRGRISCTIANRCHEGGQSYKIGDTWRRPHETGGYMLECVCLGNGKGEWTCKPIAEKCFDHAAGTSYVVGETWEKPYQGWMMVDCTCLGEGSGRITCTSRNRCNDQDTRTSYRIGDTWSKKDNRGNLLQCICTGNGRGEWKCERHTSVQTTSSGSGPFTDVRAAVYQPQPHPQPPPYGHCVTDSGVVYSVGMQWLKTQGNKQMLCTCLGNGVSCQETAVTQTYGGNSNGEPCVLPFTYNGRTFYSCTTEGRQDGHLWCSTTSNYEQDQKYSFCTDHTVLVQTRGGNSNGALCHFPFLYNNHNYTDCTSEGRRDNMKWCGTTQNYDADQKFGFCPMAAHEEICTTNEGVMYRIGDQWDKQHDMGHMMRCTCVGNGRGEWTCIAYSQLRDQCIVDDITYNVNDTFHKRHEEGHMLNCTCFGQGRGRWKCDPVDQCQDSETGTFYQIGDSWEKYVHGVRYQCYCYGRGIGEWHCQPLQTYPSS

[3] = biological target: T3, FNIII8-11 (C), central cell-binding domain of fibronectin containing RGD (human, UniProt P02751 1357-1721); assay: binding assay, method not restated
T3 construct: domain: FNIII8-11; Recombinant domain
T3 sequence (P02751 other isoform, or with tags, fused parts or gaps limits assumed): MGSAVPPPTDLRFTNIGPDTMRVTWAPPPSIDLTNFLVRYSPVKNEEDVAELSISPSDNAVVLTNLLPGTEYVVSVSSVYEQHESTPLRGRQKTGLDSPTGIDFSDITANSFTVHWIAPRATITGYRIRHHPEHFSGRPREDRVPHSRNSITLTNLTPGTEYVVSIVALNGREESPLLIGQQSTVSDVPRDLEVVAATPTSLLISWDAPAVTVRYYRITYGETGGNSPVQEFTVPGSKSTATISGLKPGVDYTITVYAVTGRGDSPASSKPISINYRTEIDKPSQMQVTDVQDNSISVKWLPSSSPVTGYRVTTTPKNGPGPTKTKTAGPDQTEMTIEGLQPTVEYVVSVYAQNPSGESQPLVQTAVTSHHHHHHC

[4] = biological target: T4, FNIII1-11 (human, UniProt P02751-1 610-1630); assay: binding assay, method not restated
T4 construct: domain: FNIII1-11; Recombinant domain
T4 sequence (P02751 other isoform, or with tags, fused parts or gaps limits assumed): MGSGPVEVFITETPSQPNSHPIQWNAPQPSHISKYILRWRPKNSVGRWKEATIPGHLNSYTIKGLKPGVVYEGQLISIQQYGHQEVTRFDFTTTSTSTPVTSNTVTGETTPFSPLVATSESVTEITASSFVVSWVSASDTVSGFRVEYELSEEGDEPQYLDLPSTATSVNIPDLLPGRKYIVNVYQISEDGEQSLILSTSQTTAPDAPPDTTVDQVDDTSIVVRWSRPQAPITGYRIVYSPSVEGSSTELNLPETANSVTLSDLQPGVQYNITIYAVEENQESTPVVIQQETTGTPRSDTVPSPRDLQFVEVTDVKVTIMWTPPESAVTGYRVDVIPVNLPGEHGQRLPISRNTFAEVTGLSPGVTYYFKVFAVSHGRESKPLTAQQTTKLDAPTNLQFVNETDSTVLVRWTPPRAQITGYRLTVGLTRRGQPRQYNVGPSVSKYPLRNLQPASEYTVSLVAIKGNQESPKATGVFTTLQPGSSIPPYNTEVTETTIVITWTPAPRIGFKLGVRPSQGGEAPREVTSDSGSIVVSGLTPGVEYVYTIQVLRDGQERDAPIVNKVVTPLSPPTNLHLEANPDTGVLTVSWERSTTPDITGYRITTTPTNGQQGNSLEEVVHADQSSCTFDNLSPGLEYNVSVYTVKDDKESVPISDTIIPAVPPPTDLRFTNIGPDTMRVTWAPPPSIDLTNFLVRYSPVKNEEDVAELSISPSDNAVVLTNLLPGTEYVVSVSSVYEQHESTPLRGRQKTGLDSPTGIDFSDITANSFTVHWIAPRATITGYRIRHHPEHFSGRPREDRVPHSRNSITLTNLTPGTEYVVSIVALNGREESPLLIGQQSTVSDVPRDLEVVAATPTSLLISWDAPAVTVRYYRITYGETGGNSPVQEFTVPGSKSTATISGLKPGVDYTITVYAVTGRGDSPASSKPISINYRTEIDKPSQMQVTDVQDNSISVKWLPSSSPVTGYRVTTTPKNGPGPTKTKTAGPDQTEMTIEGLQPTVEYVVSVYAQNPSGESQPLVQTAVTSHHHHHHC

[5] = biological target: transforming growth factor-β1 (TGF-β1) (UniProt P01137 279-390); assay: equilibrium binding
transforming growth factor-β1 (TGF-β1), sequence (P01137 279-390 limits assumed): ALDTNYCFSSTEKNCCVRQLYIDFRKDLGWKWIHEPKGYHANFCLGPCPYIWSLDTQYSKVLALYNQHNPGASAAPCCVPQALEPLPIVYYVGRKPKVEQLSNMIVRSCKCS

[6] = biological target: B3; assay: binding assay, method not restated
[7] = biological target: TGF-α (UniProt P01135 40-89); assay: binding assay, method not restated
TGF-α, sequence (P01135 40-89 limits assumed): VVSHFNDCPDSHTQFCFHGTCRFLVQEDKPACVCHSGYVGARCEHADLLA

[8] = biological target: FGF-1 (UniProt P05230 16-155, limits assumed); assay: binding assay, method not restated
FGF-1, sequence (P05230 16-155 limits assumed): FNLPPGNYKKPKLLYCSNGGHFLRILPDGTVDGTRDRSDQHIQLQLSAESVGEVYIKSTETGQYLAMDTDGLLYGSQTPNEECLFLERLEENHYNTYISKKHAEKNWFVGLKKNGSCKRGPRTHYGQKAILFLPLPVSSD

[9] = biological target: B4; assay: peptide binding assay
[10] = biological target: B4; assay: binding assay, method not restated
[11] = biological target: B4; assay: equilibrium binding
[12] = biological target: T5, FNIII1-7 (UniProt P02751 610-1265, limits assumed); assay: equilibrium and kinetic binding
T5 construct: domain: FNIII1-7
T5 sequence (P02751 610-1265 limits assumed): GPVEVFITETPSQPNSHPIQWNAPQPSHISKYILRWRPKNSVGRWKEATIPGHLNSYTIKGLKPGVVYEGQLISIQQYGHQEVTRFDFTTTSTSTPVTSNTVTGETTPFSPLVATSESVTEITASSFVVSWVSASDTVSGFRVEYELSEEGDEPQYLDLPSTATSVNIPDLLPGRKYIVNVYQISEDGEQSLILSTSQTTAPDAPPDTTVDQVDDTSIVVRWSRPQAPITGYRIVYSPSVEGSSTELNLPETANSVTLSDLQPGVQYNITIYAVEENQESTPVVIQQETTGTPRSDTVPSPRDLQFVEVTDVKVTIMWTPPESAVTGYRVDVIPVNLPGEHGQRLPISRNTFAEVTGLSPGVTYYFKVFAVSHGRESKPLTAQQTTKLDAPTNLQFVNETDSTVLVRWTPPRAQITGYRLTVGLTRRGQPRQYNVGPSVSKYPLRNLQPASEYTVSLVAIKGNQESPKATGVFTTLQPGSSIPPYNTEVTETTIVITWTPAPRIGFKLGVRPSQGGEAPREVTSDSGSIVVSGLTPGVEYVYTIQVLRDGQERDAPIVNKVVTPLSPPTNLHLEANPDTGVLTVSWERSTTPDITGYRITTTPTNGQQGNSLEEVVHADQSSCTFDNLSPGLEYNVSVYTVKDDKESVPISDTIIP

[13] = biological target: T2, 70 kDa amino terminus of FN (FN70); assay: equilibrium and kinetic binding
[14] = biological target: T6, FNIII1 (human, UniProt P02751 610-702, limits assumed); assay: binding assay, method not restated
T6 construct: domain: FNIII1; Recombinant domain; also called first type III repeat of FN
T6 sequence (P02751 other isoform, or with tags, fused parts or gaps limits assumed): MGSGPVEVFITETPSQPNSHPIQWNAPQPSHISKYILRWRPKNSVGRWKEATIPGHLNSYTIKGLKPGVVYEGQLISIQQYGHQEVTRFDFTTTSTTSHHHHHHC

[15] = biological target: T7, FNIII3-6 (human, UniProt P02751 810-1172, limits assumed); assay: binding assay, method not restated
T7 construct: domain: FNIII3-6; Recombinant domain
T7 sequence (P02751 other isoform, or with tags, fused parts or gaps limits assumed): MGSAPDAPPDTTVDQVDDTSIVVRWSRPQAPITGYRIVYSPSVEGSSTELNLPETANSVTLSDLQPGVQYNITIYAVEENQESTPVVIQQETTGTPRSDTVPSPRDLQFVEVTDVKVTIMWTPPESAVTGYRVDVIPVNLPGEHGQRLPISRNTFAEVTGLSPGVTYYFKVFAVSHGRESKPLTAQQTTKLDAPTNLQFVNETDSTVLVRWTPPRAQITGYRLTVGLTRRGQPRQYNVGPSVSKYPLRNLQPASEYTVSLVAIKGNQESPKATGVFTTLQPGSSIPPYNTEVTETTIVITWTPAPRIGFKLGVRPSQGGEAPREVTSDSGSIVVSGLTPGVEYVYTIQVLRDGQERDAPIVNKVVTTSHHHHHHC

[16] = biological target: T8, FNIII12-15 (H), heparinII-binding domain of fibronectin (human, UniProt P02751-10 1631-1987); assay: binding assay, method not restated
T8 construct: domain: FNIII12-15; Recombinant domain; also called HepII domain
T8 sequence (P02751 other isoform, or with tags, fused parts or gaps limits assumed): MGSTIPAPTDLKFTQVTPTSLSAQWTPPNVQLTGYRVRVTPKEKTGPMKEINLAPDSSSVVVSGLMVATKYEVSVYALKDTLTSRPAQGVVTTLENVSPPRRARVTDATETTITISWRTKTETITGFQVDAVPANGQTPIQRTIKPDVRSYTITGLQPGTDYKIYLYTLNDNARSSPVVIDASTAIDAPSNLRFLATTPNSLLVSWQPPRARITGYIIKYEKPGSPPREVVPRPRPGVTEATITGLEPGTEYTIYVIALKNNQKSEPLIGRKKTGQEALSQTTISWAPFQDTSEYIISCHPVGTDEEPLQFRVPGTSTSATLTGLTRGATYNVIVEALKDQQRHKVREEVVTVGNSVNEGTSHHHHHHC

[17] = biological target: T9, FNIII12-14 (human, UniProt P02751 1812-2082); assay: binding assay, method not restated
T9 construct: domain: FNIII12-14; Recombinant domain
T9 sequence (P02751 other isoform, or with tags, fused parts or gaps limits assumed): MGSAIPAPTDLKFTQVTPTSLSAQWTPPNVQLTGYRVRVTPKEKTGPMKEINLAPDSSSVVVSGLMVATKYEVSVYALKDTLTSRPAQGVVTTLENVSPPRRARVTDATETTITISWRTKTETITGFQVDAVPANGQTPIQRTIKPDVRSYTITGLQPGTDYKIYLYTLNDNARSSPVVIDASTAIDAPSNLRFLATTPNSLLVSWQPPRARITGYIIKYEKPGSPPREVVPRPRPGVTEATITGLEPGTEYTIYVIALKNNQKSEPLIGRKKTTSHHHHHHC

[18] = biological target: T10, intact fibronectin (UniProt P02751-8 32-2296, limits assumed); assay: equilibrium binding to FN adsorbed to a surface or coupled to agarose beads
T10 construct: also called FN; intact FN

[19] = biological target: T5, FNIII1-7; assay: equilibrium binding
[20] = biological target: T11, FNIII1-2 (human, UniProt P02751 610-809, limits assumed); assay: equilibrium binding
T11 construct: domain: FNIII1-2; Recombinant domain
T11 sequence (P02751 other isoform, or with tags, fused parts or gaps limits assumed): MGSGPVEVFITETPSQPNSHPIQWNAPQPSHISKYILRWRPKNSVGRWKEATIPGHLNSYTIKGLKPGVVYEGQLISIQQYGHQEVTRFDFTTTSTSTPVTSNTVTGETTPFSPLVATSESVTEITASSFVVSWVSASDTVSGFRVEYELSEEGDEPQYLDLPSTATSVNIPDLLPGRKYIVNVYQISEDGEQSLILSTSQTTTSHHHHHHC

[21] = biological target: T7, FNIII3-6; assay: equilibrium binding
[22] = biological target: T1, FNIII12-V15 (HV), composite …; assay: equilibrium binding
[23] = biological target: T8, FNIII12-15 (H), heparinII-binding …; assay: equilibrium binding
[24] = biological target: T9, FNIII12-14; assay: equilibrium binding
[25] = biological target: T12, FNIII12-13 (UniProt P02751 1812-1992); assay: equilibrium binding
T12 construct: domain: FNIII12-13

[26] = biological target: T11, FNIII1-2; assay: surface plasmon resonance
[27] = biological target: T5, FNIII1-7; assay: plasmon surface resonance, kinetic binding
[28] = biological target: T1, FNIII12-V15 (HV), composite …; assay: plasmon surface resonance, kinetic binding
[29] = biological target: T2, 70 kDa amino terminus of FN (FN70); assay: equilibrium binding, confirmed by surface plasmon resonance
[30] = biological target: T10, intact fibronectin; assay: radiolabeled GF binding to intact FN, non linear regression
[31] = biological target: T9, FNIII12-14; assay: binding assay, method not restated (plasmon resonance in the sentence before)

For B1, the Kd [1] was 0.6 nM, the binding result [2] was “no binding” and the binding result [3] was “no binding”. B1: no binding [4].

NGQTPIQRTIKPDVRSYTITGLQPGT (Synthetic peptide) [peptide 3 (NGQTPIQRTIKPDVRSYTITGLQPGT)] was tested, and the Kd [5] was 140 nM, the binding result [6] was “no binding” and the binding result [7] was “no binding”. NGQTPIQRTIKPDVRSYTITGLQPGT (Synthetic peptide) [peptide 3 (NGQTPIQRTIKPDVRSYTITGLQPGT)]: no binding [8].

QPSHISKYILRWRPK [FN634-648 (QPSHISKYILRWRPK)] was tested, and the Kd [5] was 440 nM and the Kd [9] was 450 nM.

In the case of QPSVGQQMIFEEHGFRRTTPPTTAT (Synthetic peptide) [peptide 4 (QPSVGQQMIFEEHGFRRTTPPTTAT)], the Kd [5] is reported as 100 nM, the binding result [6] is reported as “no binding” and the binding result [7] is reported as “no binding”. QPSVGQQMIFEEHGFRRTTPPTTAT (Synthetic peptide) [peptide 4 (QPSVGQQMIFEEHGFRRTTPPTTAT)]: no binding [8].

QPSHISKY [FN634-641 (QPSHISKY)]: no binding [9].

WNAPQPSHISKYILRWRPK [FN630-648 (WNAPQPSHISKYILRWRPK)] gave a Kd [9] of 340 nM.

ILRWRPKNSVGRWK gave a Kd [5] of 400 nM.

For QLISIQQYGHQEVTRFDFTTTSTST (Synthetic peptide) [peptide 2 (QLISIQQYGHQEVTRFDFTTTSTST)], the Kd [5] was 270 nM, the Kd [10] was 110 nM and the binding result [6] was “no binding”. QLISIQQYGHQEVTRFDFTTTSTST (Synthetic peptide) [peptide 2 (QLISIQQYGHQEVTRFDFTTTSTST)]: no binding [7]; no binding [8].

KNSVGRWKEATIPGHLNSYT [FN648-667 (KNSVGRWKEATIPGHLNSYT)]: no binding [9].

In the case of B2, the Kd [5] is reported as 130 nM, the Kd [11] is reported as 250 nM and the binding result [6] is reported as “no binding”. B2: no binding [7]; no binding [8].

B3: no binding [1]; no binding [12]; no binding [13]. B3: no binding [14]; no binding [15]; no binding [16]. B3: no binding [17]; no binding [3]; no binding [18].

B4 was tested, and the Kd [19] was 75 nM, the Kd [20] was 37 nM and the binding result [21] was “no binding”. The Kd [22] was 21 nM, the Kd [23] was 6.8 nM and the Kd [24] was 35 nM. The Kd [25] was 75 nM, the Kd [26] was 9.1 nM and the binding result [3] was “no binding”. For the same binder, the Kd [27] was 100 nM, the Kd [28] was 17 nM and the binding result [29] was “no binding”. It also gave a Kd [30] of 49 nM and a Kd [31] of 55 nM.

YILRWRPKNSVGRW [FN641-654 (YILRWRPKNSVGRW)]: no binding [9].
